# System: Saccharomyces cerevisiae
# Test: transcriptional activation domain activity (GFP:mCherry ratio, weighted mean of sorted bins, harmonized to initial dataset scale) (arbitrary fluorescence ratio units); higher = stronger transcriptional activation
# Details: beta-estradiol 1 µM; induction time 4 h
# Summary of the method: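 For this assay, yeast diploids with a GFP reporter carried barcoded protein tiles at URA3, each fused to an estradiol-inducible synthetic transcription factor. Induction was a 1:5 dilution into SC with 1 uM beta-estradiol for 4 hours at 30 °C, followed by sorting into 8 bins by GFP:mCherry ratio and barcode sequencing. Tiles under 50 reads were dropped, and activation activity was calculated as the read-weighted mean of bin median fluorescence, averaged across barcodes and linearly mapped onto the initial dataset scale.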
row,Sequence,transcriptional activation domain activity
1,IMGRYCAKAVWLDTRQHLLNKLSQIGFNWDVLKSLVKSWWHYYSLAVMLWLYQ,69200
2,FYGYFNVLKIYLIKYRSSEVFFFFFDFLMYTENEWFITNLFFLLSFILHLGFF,60200
3,PILLILLLLHVGFFGGYYFVICLGGLFDVCLSQLLVYKWQSFGFYWRIVVFLW,78100
4,RQLFIRGRMQTIMLDCFLELCYRGACSLSSFEHPINWFEAPSDCLIWIRRMMY,36600
5,MVYQGGVTFLCNFYILFPFFPFFFCFCKVSFLFCFCIFLFFCSWDGGLFLFLF,62700
6,IIHLVNLAQVTVFLVHRILYGIIPLFEIQTCAYFPLLVSLWHMTYILFYVVMF,36100
7,TTTTAADDADTDSKKEKEKEQAAVKVKVKEKEKEKRVLVHCCMGRSRSGAVVV,20200
8,LVHGRWSYQRVADMHANFFYKNVIWTFGLFWYLPFNSFDATYLYHYTFILLCN,61000
9,SVYALVHFGAFYRSSHGPIRMLALHIQAFYNLCSLLFSWFAIANLWLTFSIII,67600
10,ILRLSVVLKPHHYWWFLLHLLLILLLVAFTCSSFLILKHGPVWILALFLLLHI,45400
11,RTKDEMKCTSCNAPTSRVCARCKHTLYCSSEHQKKHWKQHRQACVPYGAQLVK,50600
12,FMNTNEINNNNNNNNNNKNNINNINNNNSNNFSATSFNLGTLDEFVNNGDLED,11800
13,YLIIISFFSFSFYLLIHMQYINPKGHPPLKFYQLIIWRWCATMCAYFFLSLAY,62000
14,MNAFRPLHFLFYFIFLLLSMKALRFFIFSIFFFIFLHLHLCIHIYIALLFSYP,30600
15,GMKNIDEGPETENDATENSLTTILNDLEGPLEDFSENFIDDILGSPSAFFDTA,151000
16,YFLGIFMYFLYGESVIYYFKHVLLVDRILLPLATHHRFISFMLYLIGFVFFVG,65800
17,SCTGVFRAYSILIIMVMMLSEVIILFRTCVLIRRERHGHYIICILCFFSLCVL,49600
18,MRRVTQQTGKGKIPSMYSLVVIGNGDGLVGYGEAKDDEPAAAREKATAKALRS,46400
19,MCLYRYYGFRIFLCLVVVLGDLFLGYLKLYVYIYNTVLVYWGEISISLLLVYI,71900
20,SSPNTGGGLFGSGGTTSAFGANTTSGFGSTSNTGAFGAKTGAFGATTSAGGGL,35800
21,VRRVLLMVPDWFIIFGYRWYRALGLLKTVCPWWTSIINSSSVFYSMLWVDPSV,90900

row,Sequence,transcriptional activation domain activity
1,ATKTKAATTKKAAVPKKAAAKPAPKKAVAAAKPKANAGRPRKTVAAAAGPAPA,42000
2,DGWGDGGLRAGALEEVQRRAEEMRGRLRLDEEARLYFSRSGNRLVRVVIILVG,7180
3,TMWHCMDLLFCVAPGRLIRETASGLYVHHCFECGTKLEPQPLHSLTITAYHLA,52300
4,MSSNFFGASNNAGQGSGTGASAPLFGAPKPADGGAAPAVGGLFGAKPAASGTG,27300
5,KDEVMKIKPVQKQTTAGQRTRFKAVVIVGDSNGHVGLGIKSAKEVATAIRAAI,55100
6,LLYCNQIYLICPYVVNNKVQRQVSPRDMLIVLEAALKITSIYKILTYVYFENI,58700
7,LGLTNLQLGDEMIGLGAVILIYVIARLILILLPLVALRSLPSGVFVDVNWSRY,57800
8,MEWVRLLSKEVLLFYSIFFFSFVSFTVLTLFPLHESSILSRLLIFIYPLRHLV,44700
9,GKTYTLEQDEDVLDTWFSSGLWPFSTLGWPNQTHDLENLFPTDVLETGWDILF,126000
10,RDVYYILHWVVAFTLVRATVMYKMLEPFIKWYGVRSQHKIMRFGEQGWLTIYY,59800
11,AAEEAVKVAVVVEGAKKRRGRPRKDAVDEEGTVLGALADATNTQTATAAPVPM,24300
12,RKLRTKIIELSGSVEAACALGVADGIVDLVESGETMRAAGLKAIDTVVDTQAV,29100
13,HVDQWTVIEQCLLYHQTNFIYFLFFAPLPPFLCLFFLLFVSLVFLCFDPFPLI,42500
14,LCDNVTTQWREWMFPHNETLPALGQDGINEDNLNETIDNMLIFDFLDDGSENN,109000
15,EPRISEGGLAALVASSPCKPAAVPILLTGPPKQAKACSSRLTGTHRPASNCKS,36500
16,MADEHAAHRRKRARLACLACNARRVKCNVAECRPCHNCAAANVPCETRESRRG,38300
17,KPHHKWIIPTPFASHAFHPVDGYLQSVPYHLFIFLFPMHQYVYLGLFVAVNFW,72400
18,SNGKEMAFQYYSFVKEWGHVLGRYPGEIERCLIGTLGNIFFSGVKPIANSYFL,45400
19,MSDATPTSARKAMAPRRSHRKSRLGCANCKRRRIKCDEQKPACSNCVKHDIRC,24400
20,VALDHLYLDEEQTHAIKSLSSLYIKVVIIFIKYLLVHRKIKQRLVRSWAYCYD,57900

# From the supplement of paper PMC12636428
